Source: the nanobody polyreactivity screen of Harvey et al. (2022)

Assay: yeast display, Sf9 membrane polyspecificity reagent, FACS + sequencing; frameworks hold sequencing errors
Procedure, shortened: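 After 36–48 hours of galactose induction, yeast (Saccharomyces cerevisiae BJ5465) displaying a synthetic nanobody library were stained at 4 °C for 1 hour with 10% biotinylated, detergent-solubilized Sf9 membrane reagent. Streptavidin microbeads enriched the stained cells before FACS sorting into low and high (top ~1%) gates on anti-HA and streptavidin fluorescence. Each clone's polyreactivity label reflects its gate of origin.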

Row | Sequence | polyreactivity (PSR sort gate)
1 | QVQLVESGGGLVQAGGSLRLSCAASGGTFYPYAMGWYRQAPGKERELVAAISRGGGSTSYADSVKGRFTISRDNAQNTVYLQMNSLKPEDTAVYYSNAYTYYHANHEQGFGYWGQGTQVTVSS | low polyreactivity
2 | QVQLVESGGGLVQAGGSLRLSCAASGFTFDSYAMGWYRQAPGKERELVAAMSYRGGTTYYADSVKGRFTISRDNAKNTGYLQMNSLKPEDTAVYYCNRLWKYGYNYWGQGTQVTVSS | high polyreactivity
3 | QVQLVESGGGLVQAGGSLRLSCAASGSTFFLYGMGWYRQAPGKERELVAAITWNGGSTYYADSVKGRFTISRDNAKNTVYLQMNSLKPEDTAVYYCAADYYGYFSTPYDYWGQGTQVTVSS | low polyreactivity
4 | QLQLVESGGRLVQAGGSLRLSCAASGRTFGRYAMGWYIQAPGKEREFVSSISRSTGRTSYADSVKGRFTISRANAKNTVYLQMNSLKPEDTAVYYCAVRWYYYRDDTIYVLGRYDYWGQGTQVTVSS | high polyreactivity
5 | QVQLVESGVGLVQAGGSLRLSCAASGSIFYQNAMGWYRQAPGKEREFVAAITWIGGSTYYADSVKGRFTISRDNAKNTVYLQMNSLKPEDTAVYYCARRLLRGSDWGQGTQVTVSS | high polyreactivity
6 | QVQHVESGGGLVQAGGSLRLSCAASGRIFPFNAMGCYRQAPGKETEFVAAIRLSGTRTYYADSVKGRFTISRDNAKNTVYLQMNCLNPEDTAVYYCAAKFSGHYYNYDYWGQGTQVTVSS | high polyreactivity
7 | QVQLVESGGGLVQAGGSLRLSCAASGRIFQDYAMGWYRQAPGKERELVASIRWSSTSTYYADSVKGRFTISRDNAKNTVYLQMNSLKPEVSAVYYCAKRPFYLTYFRDDYWGQGTQVSVSS | low polyreactivity
8 | QVQLVDSGGGLVQAGGSLRLSCAASGINFVWNVMGWYRQAPGKERELVADITSGGRTHYADSVKGRFTISRDNAKNTVYVQMNSLKPDDTAVYYCAARKYWRYQNYDYWGQGTQVTVSS | low polyreactivity
9 | QVQLVESGGRLVQAGGSRRLSCAGSGSIFHHNAMGSYRQAPGKESELVAAISSRSGNTYYADSVKGRFTISRDNAKNTVYLQMNSLKPEDPAVYYCAAGIRLSYSTYDSWGQGTQVTVSS | high polyreactivity
10 | QVQLVESGGVLVQAGARLRLSSAASRFTLALNTMGCYIQAPVKERELVAAISWSGGSTFADSVKGRFTISRDNAKNTFYLQMNSLKPEDTAVYYCAAPLHVAGGYSRDFGSWGQGTQVTVSS | low polyreactivity
11 | QVQLVESGGGLVQAGGSLRLICAASGRTFRYYTMGWYRQAPGKEREFVAAISSTGGTYYADSVKGRFTNSRDNAKNTVYFQMNSLKPEDTAVYYWAAYRWGILSAYYYAWYGYWGQGTQVTVSS | low polyreactivity
12 | QVQLVESGGGLVQAGGSLRLSCAASGSIFGPYAMGWYRQAPGKERELVASITNSGSTYYADSVKGRFTISRDNAKNTVYLQMNSLKPEDTAVYYCAVDERTWINDPEEYDYWGQGTQVTVSS | low polyreactivity
13 | QVQLVESGGGLVQAGGSLRLSCAASGITIVNYVMGWYRQAPGKERELVAAISIGGGTYYADSVKGRFTISRDNAKNTVYLQINSLKPEDTAVYYCNASYGGLSFYIGVYVTGYDYWGQGTQVTVSS | low polyreactivity
14 | QVQLVESGGGLVQAGGSLRLSCAASGLTFIRYAMGWYRQAPGKQRELVAAISTSGGRTYYADSVKGRFTISRDNAKNNVYLQMNILTPEDTAVYYCNAYWRQGYYPEYYYWGQGTQVTVSS | high polyreactivity
15 | QVQLVESGGGLVQAGGSLRLSCAASGSTFYRNAMGWYRQAPGKERELVAAISSTGGSTYYADSVKGRFTISRDNAKNTVYLQMNSLKPEDTAVYYCARDYSWLTRGSDYDYWGQGTQVTVSS | low polyreactivity
16 | QVQLVESGGGLVQAGGSLRLSCAASGGIFRLYGMGWYRQAPGKERELVAAIRQSGGRTYYADSVKGRFTISRDNAKNTVYLQMNSLKPEDTAVYYCAADLLYRSSGTVRSDYSRYDYWGQGTQVTVSS | low polyreactivity
17 | QVQLVESGGGLVQAGGSLRLSCAASGLILPYYAMGWYSQARGKERELVAAISRTGGRTSYADSVKVRFTISRDNAKNTVYLLINSLKPEDTAVYYCAAVGQSGGRRYDYWGQGTQVTVSS | high polyreactivity
18 | QVQLVEAGGGLVQAGGSLRLSCADCVSTGVNTMGWYRQAPGKERELVDAIRATGGSTYYADSVKGRFTISRDNAKNTVYLQMNSLKPEDTAVYYCAAKWFRLYLRQDRYYYWGQGTQVTVSS | high polyreactivity
19 | QVQLVESGGGLVQAGGSLRLSCAASGITFVHYAMGWYRQAPGKEREFVAAITKGGGSTSYADSVKGRFTISRDNAKNTVYLQMNSLKPEDTAVYYCAATYYAYGFSISYYYWGQGTQVTVSS | high polyreactivity
20 | QVQLVESVGGLVQAGGSLRLSCAASGNTLVYYDMGWYRQAPGKERELVAAISWSTGSTYYADSVKGRFTISRDNAKNTVYLQMNSLKPEDTAVYYCAAEPELDEYEHDYWGQGTQVTVSS | low polyreactivity
21 | QVQLLESGGGLVQAGGSLRLSCAASRSTFPGYAMGWYRQAPGKETELVAAITWSGVTTYYADSVKGRFTISRDNAKYTVYLQMNSLKPEDTAVYYCATGTLYSDGAIYGYWGQGTQVTVSS | low polyreactivity

Row | Sequence | polyreactivity (PSR sort gate)
22 | QVQLQESAGGLVQAGGSLRMSCAASGTIFSEANMGWYRQAPGKERELVATIGQGSTTNYADSVKGRFTISRDNAKNTVYLQMNSLKPEETAVYYCAVVTVDPVGFVYWGQGTQVTVSS | low polyreactivity
23 | QVQLVESGGGLVQAGGSLRLSCAASGSTFVYNARGWYRQAPGKERELVAAISRRGGSTYYADSVKGRFTISRDNAKNTVYLQMNSLKPEDTAVYYCAADQYRTNSYRYDYWGQGTQVTVSS | low polyreactivity
24 | QVQLQESGGGLVQAGGSLRLSCAASGTITVLYKMGWFRQAPGKEREFVASMNYGTSTYYADSVKGRFTVSRDSAKNTVYLQMNSLKPEDTAVYYCAAAYRWQDVYRYWGQGTQVTVSS | low polyreactivity
25 | QVQLVESGGGLVQAGGSLRLSCAASGLIFGYYAKGWNTQAPGKERELVADISSGGSSNYADSVKGRFTISRDNAKNTVYLQMMSLKPEVTAVYYCAARYSRWFGFWGQGTQVTVSS | high polyreactivity
26 | QVQLVESGGGLFQAGGSLRLSCAASGNTFRRNTMGWYRQAPPKERELVATISWRGGKTFYADSVKGRFTISRDNAKNTVYLQMNSLKPEDTAVYYCAADTRTQTYIYGYWGQGTQVTVSS | high polyreactivity
27 | QVQLVESGGGLVQAGGSLRLSCAASGRIFRYNAMGWYRQAPGKERELVAAIRFSGGSTYYADSVKGRFTISRDNAKNTVYLQMNSLKPEYSAVYYCAKVYFRVQSGMDYWGQGTQVTVSS | low polyreactivity
28 | QVQLVESGGGLVQAGGSLRLSCAPSGRTFGYYGMGWYRQEPGKERELVASINFSSGSTFYADSVKGRFSISRDNAKNTVYLQMNSLKPEDTAVYYCAARAKAVRSYAYNYWGQGTQVTVSS | low polyreactivity
29 | QVQLVESGGGLVQAGGSLRLSCAASGYILWNAMGWYRPAPGKERELVAAIRFRGGSTSYADSVKGRFTISRDNAKNTVYLQMNSLKPEDTAVYYCNARWWVIRPYQRHDYWGQGTQVTVSS | low polyreactivity
30 | QVQLVESGGGLVQAGGSLRLSCAASGRTFNRNAMGWYRQAPRKERELVAAISRGGTTSYADSVKGRFTISRDNAKNTVYLQMNSLQPEDTAVYYCAAEPYIQWVYYRGNGRRYGYWGQGTQVTVSS | high polyreactivity
31 | QVQLVESGGGLVQAGGSQRLSCAASGSIFDLKAMGSYRQAPGKERELVAAISSGGGTYYADSVKGRFTISRDNAKNTVYLQMNSLKPEDTAVYYCNRVTRWTYNYWGQGTQVTVSS | high polyreactivity
32 | QVQLVESGGGLVQAGCSLRLSCAASGSIFSSYAMGWYRQAPGKERELVAAITGSGGSTDYADSVKGRFTISRDNAKNTVYLQMNSLKPEDTAVYYCAARPFWPGNSYYYRYYYWGQGTQVTVSS | low polyreactivity
33 | QVQLVESGGGLVQAGGSLRLSCAASGRIIGLYTMGWYRQAPGKERELVAAINIRGTRTYYADSVKGRFTISRDNAKNTVYLQMNSLKPEDTAVYYCAAASYRSGRYTFDYWGQGTQVTVSS | high polyreactivity
34 | QVQLVESGGGLVQAGGSLRLSCAASGRTFGYNAMGWYRQAPGKESEFVAAISWSGGRTYYADSVKGRFTISRDNAKNTVYLQMNSLKPEDTAVYYCAAGFGDGPGNGYYTRYSWDDDYWGQGTQVTVSS | low polyreactivity
35 | QVQLVESGGGLVQAGGSLRLSCAASGRTFARNAMGWYRPAPGKERELVAAIPRSGGSTYYADSVKGRFTISRDNAKNTVYLQMNSLKPEDTADYYCAAVGTGSSLRYDYWGQGTQVTVSS | high polyreactivity
36 | QVQLVESGGVLVQAGGSLRLSCAASGRIFPTYAMGWYRQAPGKERELVAAISQRGGSTYYADSVKGRFTISRDNAKNTVYLQMNSLKPEDTAVYYCAASYYRQSGEYDYWGQGTQVTVSS | low polyreactivity
37 | QVQLVESGGGLVQAGRSLRLSCAASGSTYSLDAMGWYRQAPGKERELVAAISWSDGSTYYADSVKGRFTISRDNAKNTVYLLMNSLKPEDTAVYYCGADSTVRPYVHSGDYWGQCTQVTVSS | low polyreactivity
38 | QVQLVESGGGLVQAGGSLRLSCAASGFIFGYYAMGWYRQAPGKERELVAAISKSGGSTYYADSVKGRFTISRDNAKNTVYLQMNSLKPEDTAVYYCAARYTRPFGPFDYWGQGTQVTVSS | low polyreactivity
39 | QVQLVESGGGLVQAGGSLRLSCAASGGTFWYYAMGWYRQAPGKEREFVAAISSRGGNTYYADSVKGRFTISRDNAKNTVYLQMNSLKPEDTAVYYCNAKTHRRYSENYYWGQGTQVTVSS | high polyreactivity
40 | QVQLVESGGGLVQAGGSLRLSCAASGSTFPRNAMGWYRLAPGKERELVAAITSGDSTYYADSVNGRFTISRDNAKNTVYLQKNSQKPEDTAVYYCGQGTQVTVSS | low polyreactivity
41 | QVQLVESGGGLVQAGGSLRLSCAASGSIFPYYAMGWYRQAPGKERELVAAITGAGSTNYADSVKGRFTISRDNAKNTVYLQRNSLKPEDTAVYYCAADFGSPDKWRDWYDYWGQGTQVTVSS | low polyreactivity
